Source: paper PMC7007526

Target: CPn0678–GFP (Chlamydia pneumoniae)
Assay: FRET or BRET

mCherry–SNX9 (from UniProt Q9Y5X1 1-595) (natural protein)
average donor fluorescence lifetime with the acceptor (FLIM-FRET): 2.6 ns
reduction of donor fluorescence lifetime (FLIM-FRET): 256 ps
